From patent US20240261333A1 (published 2024)

Key:
[1] = molecular target: RPS14 (human, UniProt P62263 2-151); assay: co-IP with anti-FLAG, C-FLAG B3GNT2, mass spectrometry
[2] = molecular target: RPL38 (human, UniProt P63173 1-70); assay: as above
[3] = molecular target: T1, TGM1 (human, UniProt P22735 1-817, limits assumed); assay: as above
T1 construct: also called NP_000350.1
T1 sequence (looked up): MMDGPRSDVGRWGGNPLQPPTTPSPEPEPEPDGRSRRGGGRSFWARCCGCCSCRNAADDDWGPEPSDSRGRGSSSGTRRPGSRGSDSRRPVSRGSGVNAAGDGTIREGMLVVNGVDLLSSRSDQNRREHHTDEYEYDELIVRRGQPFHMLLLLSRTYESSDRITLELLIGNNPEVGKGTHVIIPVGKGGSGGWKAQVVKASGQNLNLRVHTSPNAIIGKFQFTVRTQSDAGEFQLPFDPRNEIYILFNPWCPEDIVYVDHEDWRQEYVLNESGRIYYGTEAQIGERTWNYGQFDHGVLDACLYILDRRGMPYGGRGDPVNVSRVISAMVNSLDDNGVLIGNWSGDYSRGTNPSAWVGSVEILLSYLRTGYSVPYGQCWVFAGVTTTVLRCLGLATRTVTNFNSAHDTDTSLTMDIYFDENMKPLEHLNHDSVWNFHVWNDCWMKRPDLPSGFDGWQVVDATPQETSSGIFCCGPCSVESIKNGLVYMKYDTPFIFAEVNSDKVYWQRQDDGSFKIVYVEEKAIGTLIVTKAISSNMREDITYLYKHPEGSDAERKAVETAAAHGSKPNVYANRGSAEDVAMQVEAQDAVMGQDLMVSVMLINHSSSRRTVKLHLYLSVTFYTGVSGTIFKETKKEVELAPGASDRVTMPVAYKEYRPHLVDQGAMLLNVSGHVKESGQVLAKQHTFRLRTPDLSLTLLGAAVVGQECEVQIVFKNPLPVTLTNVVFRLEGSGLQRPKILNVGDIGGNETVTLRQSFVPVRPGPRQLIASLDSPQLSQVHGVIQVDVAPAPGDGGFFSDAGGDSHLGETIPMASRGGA

[4] = molecular target: T2, HNRNPA2B1 (human, UniProt P22626-2 1-341); assay: co-IP, anti-FLAG, lysate of cells with N-FLAG B3GNT2; mass spectrometry
T2 construct: also called NP_002128.1 (+1)
T2 sequence (P22626 other isoform, or with tags, fused parts or gaps limits assumed): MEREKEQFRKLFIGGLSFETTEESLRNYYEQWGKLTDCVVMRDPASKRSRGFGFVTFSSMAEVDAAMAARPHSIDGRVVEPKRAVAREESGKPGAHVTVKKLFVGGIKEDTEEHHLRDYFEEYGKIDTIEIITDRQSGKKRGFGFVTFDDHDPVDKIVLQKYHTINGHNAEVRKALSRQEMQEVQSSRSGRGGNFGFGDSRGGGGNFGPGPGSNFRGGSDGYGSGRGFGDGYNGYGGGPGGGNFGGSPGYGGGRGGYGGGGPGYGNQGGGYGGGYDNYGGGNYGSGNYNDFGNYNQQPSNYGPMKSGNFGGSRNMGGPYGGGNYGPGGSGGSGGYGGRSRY
Experimental: (§1) Cells were plated in 10-cm cell culture dishes and grown to 60-80% confluency. For each condition, two biological replicates were harvested for co-IP. Cells were washed with PBS and 4 mL of lysis buffer (20 mM HEPES, 1% Triton X-100, 150 mM NaCl, 1 mM EDTA, and 10% glycerol) containing protease inhibitor cocktail was added. Cells were scraped and lysate was incubated at 4° C. under rotary agitation for 1 h. Lysate was centrifuged at 14,000×g for 10 min at 4° C. Supernatant was transferred to a new tube and an aliquot was taken as the input. […] For Western blots, 10 μg/mL Chicken Anti-FLAG (Aves labs ET-DY100) and IgY control (R&D Systems AB-101-C) antibodies were biotinylated (Thermo Fisher Scientific 90407) and added to the respective conditions. Lysates with antibodies were incubated at 4° C. under rotary agitation overnight. For each mL of lysate, 50 μL of Pierce Protein A/G Magnetic Beads (Mass spectrometry; Thermo Fisher Scientific 88803) or Pierce Streptavidin Magnetic Beads (Western blot; Thermo Fisher Scientific 88817) was washed twice with lysis buffer. Lysates with antibodies were added to the beads and incubated at 4° C. under rotary agitation for 4 h. Beads were washed with lysis buffer 3 times and resuspended in lysis buffer for storage.
(§2) Magnetic beads were resuspended in 100 mM Tris pH 7.8, reduced, alkylated and digested with trypsin at 37° ° C. overnight. This solution was subjected to solid phase extraction to concentrate the peptides and remove unwanted reagents followed by injection onto a Shimadzu HPLC with fraction collector. Eight fractions were collected and after concentration were injected on a Waters NanoAcquity HPLC equipped with a self-packed Aeris 3 μm C18 analytical column 0.075 mm by 20 cm, (Phenomenex). Peptides were eluted using standard reverse-phase gradients. The effluent from the column was analyzed using a Thermo Orbitrap Elite mass spectrometer (nanospray configuration) operated in a data dependent manner for 54 minutes. The resulting fragmentation spectra were correlated against the known database using Proteome Discover 1.4 (Thermo Fisher Scientific).

[5] = molecular target: T3, PRRC2A (human, UniProt P48634 1-2157); assay: as above
T3 construct: also called NP_004629.3 (+1)
T3 sequence (P48634 whole entry): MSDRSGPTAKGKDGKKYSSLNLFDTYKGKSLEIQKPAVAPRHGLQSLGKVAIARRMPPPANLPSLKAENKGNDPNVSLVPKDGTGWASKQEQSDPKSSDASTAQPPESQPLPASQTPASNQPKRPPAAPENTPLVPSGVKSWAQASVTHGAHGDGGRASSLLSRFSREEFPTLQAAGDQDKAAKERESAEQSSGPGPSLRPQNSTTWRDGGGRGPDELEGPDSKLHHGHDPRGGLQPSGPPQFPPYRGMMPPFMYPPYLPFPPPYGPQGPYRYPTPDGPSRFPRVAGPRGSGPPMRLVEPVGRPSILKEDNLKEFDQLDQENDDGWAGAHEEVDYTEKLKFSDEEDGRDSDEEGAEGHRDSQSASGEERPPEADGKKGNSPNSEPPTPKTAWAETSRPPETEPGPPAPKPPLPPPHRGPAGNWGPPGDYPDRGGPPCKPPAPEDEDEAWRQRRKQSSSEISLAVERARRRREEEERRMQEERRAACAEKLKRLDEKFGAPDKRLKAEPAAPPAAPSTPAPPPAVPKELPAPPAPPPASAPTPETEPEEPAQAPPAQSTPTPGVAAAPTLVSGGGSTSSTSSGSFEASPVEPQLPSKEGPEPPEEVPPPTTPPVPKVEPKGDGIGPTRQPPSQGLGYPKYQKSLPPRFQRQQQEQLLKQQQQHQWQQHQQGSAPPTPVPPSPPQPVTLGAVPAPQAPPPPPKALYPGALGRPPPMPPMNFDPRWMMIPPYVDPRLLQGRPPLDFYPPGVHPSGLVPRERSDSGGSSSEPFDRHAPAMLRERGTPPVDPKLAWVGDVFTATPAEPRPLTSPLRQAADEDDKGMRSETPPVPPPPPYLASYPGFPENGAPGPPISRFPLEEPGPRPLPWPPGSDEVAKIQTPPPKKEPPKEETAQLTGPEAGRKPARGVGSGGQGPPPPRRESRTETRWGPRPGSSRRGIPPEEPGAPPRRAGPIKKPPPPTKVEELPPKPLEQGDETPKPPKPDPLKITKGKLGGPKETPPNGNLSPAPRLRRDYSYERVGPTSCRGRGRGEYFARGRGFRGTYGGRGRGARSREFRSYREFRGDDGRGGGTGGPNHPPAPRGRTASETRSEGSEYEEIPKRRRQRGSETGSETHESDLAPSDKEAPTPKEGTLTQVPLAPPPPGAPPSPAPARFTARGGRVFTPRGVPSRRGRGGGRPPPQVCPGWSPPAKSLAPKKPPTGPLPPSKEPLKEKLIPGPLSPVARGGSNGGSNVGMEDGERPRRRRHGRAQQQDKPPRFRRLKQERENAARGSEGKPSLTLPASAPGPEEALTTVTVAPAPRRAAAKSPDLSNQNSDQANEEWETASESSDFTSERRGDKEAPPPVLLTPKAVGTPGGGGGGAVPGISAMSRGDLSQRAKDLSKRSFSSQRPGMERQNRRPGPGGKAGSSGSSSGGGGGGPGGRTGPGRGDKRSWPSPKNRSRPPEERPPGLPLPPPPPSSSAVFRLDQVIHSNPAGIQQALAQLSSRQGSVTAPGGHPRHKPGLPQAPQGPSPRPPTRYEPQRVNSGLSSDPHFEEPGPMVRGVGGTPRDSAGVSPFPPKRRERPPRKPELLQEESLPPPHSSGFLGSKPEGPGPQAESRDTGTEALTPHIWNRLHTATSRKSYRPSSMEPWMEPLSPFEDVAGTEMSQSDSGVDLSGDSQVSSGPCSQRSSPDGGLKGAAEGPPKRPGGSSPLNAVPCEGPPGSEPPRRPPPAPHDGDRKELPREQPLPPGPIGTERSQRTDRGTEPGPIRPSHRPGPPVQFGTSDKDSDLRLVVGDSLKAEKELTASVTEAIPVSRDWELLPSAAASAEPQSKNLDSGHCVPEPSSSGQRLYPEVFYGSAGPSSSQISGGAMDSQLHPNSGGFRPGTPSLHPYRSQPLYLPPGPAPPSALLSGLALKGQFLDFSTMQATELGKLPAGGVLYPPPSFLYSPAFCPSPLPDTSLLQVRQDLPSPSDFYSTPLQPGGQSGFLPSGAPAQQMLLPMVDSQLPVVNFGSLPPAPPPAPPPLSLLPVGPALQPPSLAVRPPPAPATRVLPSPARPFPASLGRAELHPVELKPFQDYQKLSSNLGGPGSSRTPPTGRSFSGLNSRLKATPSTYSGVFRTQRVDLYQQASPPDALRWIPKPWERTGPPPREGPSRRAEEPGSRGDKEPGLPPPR
Experimental: as §1, §2

[6] = molecular target: RPS28 (human, UniProt P62857 1-69); assay: as above
Experimental: as §1, §2

[7] = molecular target: T4, HNRNPK (human, UniProt P61978-3 1-440, limits assumed); assay: as above
T4 construct: also called NP_001305115.1 (+1)
T4 sequence (P61978 other isoform, or with tags, fused parts or gaps limits assumed): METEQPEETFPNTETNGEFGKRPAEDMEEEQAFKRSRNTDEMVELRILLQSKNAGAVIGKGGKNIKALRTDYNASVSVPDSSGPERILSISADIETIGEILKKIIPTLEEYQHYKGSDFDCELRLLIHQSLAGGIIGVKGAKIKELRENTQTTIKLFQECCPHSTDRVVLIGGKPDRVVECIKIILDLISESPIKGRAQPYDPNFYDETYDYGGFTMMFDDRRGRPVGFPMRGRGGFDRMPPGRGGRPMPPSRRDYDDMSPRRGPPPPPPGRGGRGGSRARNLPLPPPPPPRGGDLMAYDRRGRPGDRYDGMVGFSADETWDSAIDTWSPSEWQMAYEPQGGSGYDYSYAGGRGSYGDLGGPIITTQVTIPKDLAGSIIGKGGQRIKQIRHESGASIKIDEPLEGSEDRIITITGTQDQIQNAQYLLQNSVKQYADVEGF
Experimental: as §1, §2

B1: C-terminal FLAG tagged B3GNT2 (enzyme, human, UniProt Q9NY97 1-397, looked up)
chain: MSVGRRRIKLLGILMMANVFIYFIMEVSKSSSQEKNGKGEVIIPKEKFWKISTPPEAYWNREQEKLNRQYNPILSMLTNQTGEAGRLSNISHLNYCEPDLRVTSVVTGFNNLPDRFKDFLLYLRCRNYSLLIDQPDKCAKKPFLLLAIKSLTPHFARRQAIRESWGQESNAGNQTVVRVFLLGQTPPEDNHPDLSDMLKFESEKHQDILMWNYRDTFFNLSLKEVLFLRWVSTSCPDTEFVFKGDDDVFVNTHHILNYLNSLSKTKAKDLFIGDVIHNAGPHRDKKLKYYIPEVVYSGLYPPYAGGGGFLYSGHLALRLYHITDQVHLYPIDDVYTGMCLQKLGLVPEKHKGFRTFDIEEKNKNNICSYVDLMLVHSRKPQEMIDIWSQLQSAHLKC
notes: FLAG-tagged ORF overexpressed in cells; pulled down from lysate with mouse anti-FLAG; also called C-FLAG B3GNT2; C-term flag; not shown: C-terminal FLAG tag
[1]
  co-IP mass spectrometry count: 18
[2]
  co-IP mass spectrometry count: 8

B2: C-terminal FLAG tagged B3GNT2 (enzyme, human, UniProt Q9NY97 1-397, looked up)
chain: B1 chain
notes: FLAG-tagged ORF overexpressed in A375 cells; pulled down from the lysate with mouse anti-FLAG; also called C-FLAG B3GNT2; C-term flag; not shown: C-terminal FLAG tag
[3]
  co-IP/MS count, C-term flag: 8

B3: N-terminal FLAG tagged B3GNT2 (enzyme, human, UniProt Q9NY97 1-397, looked up)
chain: B1 chain
notes: Overexpressed in cells and pulled down from the lysate with mouse anti-FLAG antibody; also called N-FLAG B3GNT2; N-term FLAG; not shown: N-terminal FLAG tag
[4]
  co-IP mass spectrometry count: 7
[5]
  co-IP mass spectrometry count: 2
[6]
  co-IP mass spectrometry count: 0
[7]
  co-IP mass spectrometry count: 9
